Molecular target: 158P1D7 receptor on HUVEC cells (unidentified)
Experiment: flow cytometry on HUVEC cells; bound ECD detected with anti-158P1D7-PE (MAb M15/X68.2.22 at 1 ug/ml and anti-mouse-PE); by the order of the key, 2.88% is taken as the sample 'HUVEC No ECD' and 6.53% as 'HUVEC 158P1D7 ECD' [panel printed as Fig. 34A]

% gated: 6.53%
Substance: Recombinant extracellular domain (ECD) of 158P1D7 (amino acids 16-608) (from UniProt Q9H5Y7 16-608)
